The results in this text go back to patent US20050124041A1 (YUHAN, published 2005).

By Kd is commonly meant the constant that tells how readily two partners part at equilibrium.

The target in this experiment is T1, recombinant human tumor necrosis factor-α (Biosource PHC3011, Belgium) (human, UniProt P01375 77-233).
T1 construct: Bought recombinant protein; also called hTNFα; hTNF-α
The experiment can be described thus: competitive ELISA: TSK11 pre-incubated with soluble hTNFα, then added to hTNFα-coated wells; Scatchard plot analysis (Friguet method). As to the method:
In vitro binding affinity of TSK11 antibody against hTNFα was determined by ELISA assay. Here, each well was coated with 100 μl of recombinant hTNFα at a concentration of 4 μg/ml. Next, in Micro Tube (AXYGEN, U.S.A.) recombinant hTNFα was diluted with PBS solution supplemented with 0.02% bovine serum albumin to obtain the final concentration ranging from 5×10⁻⁹ M to 1×10⁻¹⁰ M. hTNFα diluents having various concentrations were mixed with 30 μg of TSK11 antibody and maintained at 37° C. for 2 hours. The mixed solution was distributed to the each well coated with the recombinant hTNFα, and incubated at 37° C. for 2 hours. Then, 100 μl of a horseradish peroxiadase substrate solution (Bio-rad, 172-1064) was added to the each well and kept at 37° C. for 3 minutes to induce color development. The absorbance of the each well was measured at 410 nm with ELISA reader (Dinatec inc., U.S.A.).
Apparent affinity was determined by calculating a reciprocal of the antigen concentration required in inhibiting 50% of the maximum binding in the competitive ELISA according to Scatchard plot analysis (Friguet E. et al., J. of Immunological Method 77: 305-319, 1985).

T1 sequence (P01375 77-233 limits assumed): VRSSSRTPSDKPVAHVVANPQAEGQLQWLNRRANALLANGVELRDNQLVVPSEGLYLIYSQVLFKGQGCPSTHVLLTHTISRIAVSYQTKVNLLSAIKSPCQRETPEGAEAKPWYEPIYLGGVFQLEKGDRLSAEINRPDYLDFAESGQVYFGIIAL

B1: monoclonal antibody produced from the hybridoma cell line TSK11 (antibody, IgG1, V domains shown)
VH: QVQLVQSGPELKKPGETVKISCKASGYTFTHYGMNWVKQAPGEGLKWMGWINTNTGEPRYDEEFKGRFAFSLETSASTAYLQINNLRREDTATYFCARYDSRGFDCWGQGTTLTVSS
VL: QIVLTQSPAIMSASLGERVTMTCTASSSISYNYFHWYQQRPGSSPKLWIYSSSNLASGVPPRISGSGSGTSYSLTISSMEAEDAATYYCHQYERSPWTFGGGTKLEIKR
notes: Mouse hybridoma antibody; also called TSK11 antibody
For the molecule B1, the equilibrium dissociation constant (Kd) stood at 1.95 nM.
